Test results taken from patent US9962427B2, “Treatment of right ventricular dysfunction due to pressure overload” (OTTAWA HOSPITAL RESEARCH INSTITUTE, priority 2016, dated 2018).

Columns and labels:
[1] = system: primary neonatal cardiomyocytes; assay: Morphometric analysis of stimulated primary neonatal cardiomyocytes (cell area, length:width ratio); assay type: cell-based; settings: 24 hours stimulation, PE 100 μM; for cell areas increases: versus serum-free control
Protocol: FIGS. 1A and 1B. Morphometric analysis of primary cardiomyocytes stimulated with human Cardiotrophin-1 (hCT1) and/or the hypertrophy agonist Phenylephrine (PE).
Phenylephrine (PE) was used as a pathological adaptive compensation control as it is a known target of the stress-activated G-protein coupled alpha (α)-adrenergic pathway. Primary neonatal cardiomyocytes were stimulated for 24 hours with hCT1 (0.5 nM), PE (100 μM), the combination of hCT1 and PE, or control serum-free (SF) media followed by morphometric analysis (cell area and length:width ratio) (FIG. 1A). […] This CT-1 mediated growth is typical of the cardiomyocyte adaptations that occur during physiologic adaptive compensation with an L:W ratio that is divergent from PE induced growth.

[2] = system: primary neonatal cardiomyocytes; assay: In vitro reversion of cardiomyocyte hypertrophy after removal of stimulus; assay type: cell-based; settings: for myocyte hypertrophy (cell area) after removal of stimulus: 2 day treatment, then 4 days serum-free media (Day 6); for cardiomyocyte cell size after 2 days of stimulation compared to control: PE 100 μM or hCT1 0.5 nM, Day 2
Protocol: FIGS. 2A and 2B. hCT1 induces physiologic adaptive compensation in vitro with reversion to a normal cardiomyocyte phenotype upon removal of hCT1 stimulation.
The morphological effects of CT-1 in an in vitro reversion setting (FIGS. 2A and 2B) were explored. Primary neonatal cardiomyocytes were stimulated for 2 days with phenylephrine (PE, 100 μM) or hCT1 (0.5 nM) followed by removal of the stimulus for 4 days: i.e. replenished with serum-free (SF) media. Cells were imaged at Day 0 and Day 2 of stimulation; and at Day 6 (4 days post-treatment). […] The population frequencies of L:W ratios of cardiomyocytes stimulated as above were examined (FIG. 2B). […] However, upon treatment with CT-1, only ˜20% of cardiomyocytes display a L:W ratio of 1.0 to 2.0 with the remaining cardiomyocytes showing an increased shift between 3.0 and 9.0 indicating eccentric growth. […] These observations indicate that although there is not complete penetrance of the eccentric growth (presumably due to the dosage and timing of CT-1 stimulation used), CT-1 causes an eccentric and reversible cardiomyocyte growth similar to what is seen during RV adaptive compensation, which is distinct from the concentric growth observed with PE which models pathological hypertrophic changes.

Mef2 = Mef2 luciferase reporter in primary neonatal cardiomyocytes; assay type: cell-based; settings: hCT1 0.5 nM; for Mef2 activation after 24 hrs: PE 100 μM, PAC-1 25 μM
Protocol: FIGS. 6A, 6B, and 6C. Stimulation with hCT1 causes sustained activation of NF-κB and Stat3 with limited activation of Mef2, as well as limited Nfat activation; the latter two indices are distinct expression patterns from pathologic hypertrophic stimulation. FIG. 6A Primary neonatal cardiomyocytes were transfected with luciferase reporter plasmids (NF-κB or Mef2), as indicators of hypertrophic activity. Luciferase activity was measured after treatments for 24 hrs with: hCT1 (0.5 nM), PE (100 μM), or procaspase 3 activating compound 1, PAC-1 (25 μM) (left). Treatments at early timepoints (30 min, 1 hr, and 3 hr) were also conducted for hCT1 (right). FIG. 6B Primary neonatal cardiomyocytes were transfected with a luciferase reporter plasmid for Stat3. Luciferase activity was measured after treatments for 24 hrs with: hCT1 (0.5 nM), PE (100 μM), or procaspase 3 activating compound 1, PAC-1 (25 μM) (left) and at earlier time points (right). FIG. 6C Primary neonatal cardiomyocytes were infected with a luciferase-based Nfat reporter Adenovirus (Nfat-AdV). Luciferase activity was measured after treatments for 24 hrs with: hCT1 (0.5 nM), PE (100 μM), or procaspase 3 activating compound 1, PAC-1 (25 μM) (left) and at earlier time points (right)
The signaling pathways that CT-1 engages in mediating physiologic adaptive compensatory remodeling were examined. The applicants predicted that cardiomyocyte adaptive remodeling mediated by CT-1 results (in part) from the induction of a specific transcriptional program, which is distinct from that of pathologic hypertrophic response. To address this hypothesis, the applicants tested the activity of two well-known transcription factor families that have been linked to both physiologic and pathologic cardiomyocyte growth, the Mef2 (Kolodziejczyk et al. 1999 Curr Biol. 9, 1203-1206; Kim et al. 2008, J Clin Invest. 118, 124-132.) and the NF-κB family (Gordon et al. 2011, Circ Res. 108, 1122-1132). Primary neonatal cardiomyocytes were transfected with luciferase reporter plasmids (NF-κB and Mef2) to be used as a read out of transcriptional activity. Luciferase activity was determined after treatments for 24 hrs with: hCT1 (0.5 nM), PE (100 μM), or procaspase 3 activating compound 1, PAC-1 (25 μM). […] This pattern of transcription factor activation was distinct from that induced by PE and by the caspase 3 specific activating compound PAC-1.

rats = assay: M-mode ECHO after 2 weeks of osmotic minipump delivery in rats; assay type: in vivo, rat; settings: hCT1 6 μg/kg/hr
Protocol: FIGS. 3A, 3B, and 3C. […] Arrows (in upper panels) point to myocardial wall (RVLW). Dotted lines (in lower panels) show inner ventricle chambers.
CT-1 was tested in vivo to determine whether its administration would induce a myocardial adaptive remodeling characteristic of physiologic compensation (FIGS. 3A, 3B, and 3C). Osmotic minipumps containing PBS control (Ctrl) or hCT1 (6 μg/kg/hr) or Isoproterenol (ISO, 1 mg/kg/day) were implanted subcutaneously in rats. ISO is a beta-adrenergic receptor agonist and continuous infusion with ISO in rats is known to induce pathological cardiac hypertrophy and cardiomyocyte damage (in both the right and left ventricles) which progresses to heart failure (Morisco et al (2001) J Mol Cell Cardiol 33:561-573 and Grimm et al (1998) Cardiovascular Research 37:91-100). After 2 weeks of treatment, M-mode ECHO analysis was used to assess myocardial structure/function (FIG. 3A). In this model, an increased right ventricle lateral wall (RVLW) thickness indicates the presence of myocardiocytes growth, and an increased ratio of the right to left ventricle internal diameters (RVID/LVID) is an indicator of pathologic hypertrophy. An increased RVLW thickness but constant or reduced RVID:LVID ratio is an indicator of adaptive compensatory RV remodeling. Both hCT1 and ISO induced a significant increase in RVLW thickness (12% and 32% fold increase, respectively) compared to control rats (n=3; * and **, P<0.05). […] An in vivo growth reversal analysis was also conducted. Following a 2 week delivery of CT-1 protein (6 μg/kg/hr) or PE (10 mg/kg/day) as the pathologic control in this case, animals were then assessed for cardiac structure/function at a 6 week follow-on period. […] Collectively, these studies support the contention that CT-1 elicits a reversible physiologic cardiac adaptive compensation.

Q: Which results are given for `CNC[C@H](O)c1cccc(O)c1` [PE, Phenylephrine]?
A: L:W ratio, in words [1]: same or shortened L:W ratio; cell areas increases ([1]; hCT1 0.5 nM): 171%; myocyte hypertrophy (cell area) after removal of stimulus [2]: remained hypertrophied; cardiomyocyte cell size after 2 days of stimulation compared to control [2]: increase in cardiomyocyte cell size; Mef2 activation after 24 hrs (Mef2): significant activation of Mef2

B1: hCT1: Recombinant human CT1 protein; 201 amino acid sequence, GenBank Accession Nos AAD12173 and AAA85229 (human) (protein, UniProt Q16619 1-201, looked up)
Cardiotrophin-1: MSRREGSLEDPQTDSSVSLLPHLEAKIRQTHSLAHLLTKYAEQLLQEYVQLQGDPFGLPSFSPPRLPVAGLSAPAPSHAGLPVHERLRLDAAALAALPPLLDAVCRRQAELNPRAPRLLRRLEDAARQARALGAAVEALLAALGAANRGPRAEPPAATASAASATGVFPAKVLGLRVCGLYREWLSRTEGDLGQLLPGGSA
Q: B1 was tested. Which “L:W ratio (length to width ratio)” value ([1]; hCT1 0.5 nM) did it give?
A: 172%

Q: What about the cell areas increases ([1]; hCT1 0.5 nM) of the same molecule?
A: 162%

Q: What about the “myocyte hypertrophy (cell area) after removal of stimulus” value [2] of the same molecule?
A: reversion of the myocyte hypertrophy

Q: And the “L:W ratio population frequency after removing stimulation” value ([2]; 4 days after removal)?
A: reversion of L:W ratio occurs

Q: And the “cardiomyocyte cell size after 2 days of stimulation compared to control” value [2]?
A: increase in cardiomyocyte cell size

Q: What about the “proportion of cardiomyocytes with L:W ratio of 1.0 to 2.0” value ([2]; upon treatment (2 days), control ~60%) of the same molecule?
A: ~20%

Q: And the “RVID/LVID ratio, in words” value (rats)?
A: did not develop this pathologic state of cardiac hypertrophy

Q: What about the “increase in RVLW thickness compared to control rats” value (rats; ISO 1 mg/kg/day, subcutaneous minipump) of the same molecule?
A: 12 % fold increase

Q: What about the “Mef2 luciferase activity at 1 hr and 3 hr” value (Mef2) of the same molecule?
A: significant activation

Q: What about the “Mef2 activation after 24 hrs” value (Mef2) of the same molecule?
A: only NF-κB transcriptional activity was sustained
